How the values were obtained:
Experiment in all cases: other fluorescence titration; microplate-based binding assay (HI-FI) with Alexa-488-labelled Sod1 and Ccs; 20 mM Tris pH 7.5, 150 mM NaCl, 1 mM TCEP; plates imaged on a Typhoon FLA 9500; quadruplicate; apparent dissociation constants
[1] = molecular target: human Sod1 A4V/C146S, metal-free, disulfide reduced, labelled with Alexa-488 at C57 (human)
[2] = molecular target: human Sod1 G85R/C146S, metal-free, disulfide reduced, labelled with Alexa-488 at C57 (human)
[3] = molecular target: human Sod1 G93A/C146S, metal-free, disulfide reduced, labelled with Alexa-488 at C57 (human)
[4] = molecular target: human Sod1 H80R/C146S, metal-free, disulfide reduced, labelled with Alexa-488 at C57 (human)

Kd [1]: 42.1 nM | Kd [2]: 35.5 nM | Kd [3]: 33.4 nM | Kd [4]: 67.6 nM
Substance: human copper chaperone for Sod1 (Ccs) (natural protein)
